Ki data for 1 molecule are collected here from publication PMC2835468 (Matrix biology : journal of the International Society for …, 2009).

Experiment [1] addresses T1, ADAMTS5-1 (full-length human ADAMTS-5, C-terminal FLAG-tag) (human, UniProt Q9UNA0 262-930).
T1 sequence (looked up): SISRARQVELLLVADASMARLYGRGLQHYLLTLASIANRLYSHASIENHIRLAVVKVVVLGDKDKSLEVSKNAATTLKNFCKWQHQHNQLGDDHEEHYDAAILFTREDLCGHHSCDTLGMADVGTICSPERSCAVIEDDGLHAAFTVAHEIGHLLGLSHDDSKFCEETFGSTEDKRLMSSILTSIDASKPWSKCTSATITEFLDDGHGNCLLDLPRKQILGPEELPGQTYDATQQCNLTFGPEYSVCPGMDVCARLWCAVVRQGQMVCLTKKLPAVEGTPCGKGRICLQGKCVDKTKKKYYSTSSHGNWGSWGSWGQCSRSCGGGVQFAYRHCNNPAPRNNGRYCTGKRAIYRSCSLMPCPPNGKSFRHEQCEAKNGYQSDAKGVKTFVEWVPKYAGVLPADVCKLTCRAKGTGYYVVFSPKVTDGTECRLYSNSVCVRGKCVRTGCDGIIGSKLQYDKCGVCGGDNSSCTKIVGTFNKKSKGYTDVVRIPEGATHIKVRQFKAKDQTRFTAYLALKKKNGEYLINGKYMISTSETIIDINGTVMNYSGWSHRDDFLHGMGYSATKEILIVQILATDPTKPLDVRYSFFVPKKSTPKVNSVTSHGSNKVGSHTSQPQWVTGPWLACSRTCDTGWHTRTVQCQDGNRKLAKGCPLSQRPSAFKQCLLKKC
The experiment in a line: enzyme inhibition kinetics.

Experiment [2] addresses T2, ADAMTS5-5 (human ADAMTS-5, catalytic and disintegrin domain, C-terminal FLAG-tag) (human, UniProt Q9UNA0 262-566).
T2 sequence (looked up): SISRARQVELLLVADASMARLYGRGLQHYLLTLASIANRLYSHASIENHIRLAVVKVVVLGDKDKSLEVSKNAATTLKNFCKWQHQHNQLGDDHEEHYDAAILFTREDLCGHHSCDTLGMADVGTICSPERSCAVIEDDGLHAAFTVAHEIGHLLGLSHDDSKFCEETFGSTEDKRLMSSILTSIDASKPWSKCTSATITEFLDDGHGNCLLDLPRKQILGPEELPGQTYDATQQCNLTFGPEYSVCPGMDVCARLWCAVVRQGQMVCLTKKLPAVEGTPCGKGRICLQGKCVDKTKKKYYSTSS
In words: enzyme inhibition kinetics.

B1: FLAG-tagged glycosylated human TIMP-3 (full-length tissue inhibitor of metalloproteinases 3), expressed in HEK293 (natural protein, UniProt P35625 24-211, looked up)
chain: CTCSPSHPQDAFCNSDIVIRAKVVGKKLVKEGPFGTLVYTIKQMKMYRGFTKMPHVQYIHTEASESLCGLKLEVNKYQYLLTGRVYDGKMYTGLCNFVERWDQLTLSQRKGLNYRYHLGCNCKIKSCYYLPCFVTSKNECLWTDMLSNFGYPGYQSKHYACIRQKGGYCSWYRGWAPPDKSIINATDP
modifications: glycosylated (only the 27 kDa glycosylated form remained after purification; single N-glycosylation site in the C-terminal domain)
Turning to B1, the Ki (usually the dissociation constant of the complex between target and ligand, obtained from inhibition or displacement) in experiment [1] was determined as 0.7 nM; in experiment [2] it was 1.89 nM.
